In PMC4230329 (Biochemistry, 2014) one finds Kd and dH data, which are given here for 7 molecules.

B1: gankyrin-His6x (wild-type gankyrin) (natural protein)
chain: MEGCVSNLMVCNLAYSGKLEELKESILADKSLATRTDQDSRTALHWACSAGHTEIVEFLLQLGVPVNDKDDAGWSPLHIAASAGRDEIVKALLGKGAQVNAVNQNGCTPLHYAASKNRHEIAVMLLEGGANPDAKDHYEATAMHRAAAKGNLKMIHILLYYKASTNIQDTEGNTPLHLACDEERVEEAKLLVSQGASIYIENKEEKTPLQVAKGGLGLILKR
B2: gankyrin-His6x R41A (natural protein)
chain: MEGCVSNLMVCNLAYSGKLEELKESILADKSLATRTDQDSATALHWACSAGHTEIVEFLLQLGVPVNDKDDAGWSPLHIAASAGRDEIVKALLGKGAQVNAVNQNGCTPLHYAASKNRHEIAVMLLEGGANPDAKDHYEATAMHRAAAKGNLKMIHILLYYKASTNIQDTEGNTPLHLACDEERVEEAKLLVSQGASIYIENKEEKTPLQVAKGGLGLILKR
B3: gankyrin K116A (natural protein)
chain: MEGCVSNLMVCNLAYSGKLEELKESILADKSLATRTDQDSRTALHWACSAGHTEIVEFLLQLGVPVNDKDDAGWSPLHIAASAGRDEIVKALLGKGAQVNAVNQNGCTPLHYAASANRHEIAVMLLEGGANPDAKDHYEATAMHRAAAKGNLKMIHILLYYKASTNIQDTEGNTPLHLACDEERVEEAKLLVSQGASIYIENKEEKTPLQVAKGGLGLILKR
B4: gankyrin-His6x D39A/D71A (natural protein)
chain: MEGCVSNLMVCNLAYSGKLEELKESILADKSLATRTDQASRTALHWACSAGHTEIVEFLLQLGVPVNDKDAAGWSPLHIAASAGRDEIVKALLGKGAQVNAVNQNGCTPLHYAASKNRHEIAVMLLEGGANPDAKDHYEATAMHRAAAKGNLKMIHILLYYKASTNIQDTEGNTPLHLACDEERVEEAKLLVSQGASIYIENKEEKTPLQVAKGGLGLILKR
B5: gankyrin E182A (natural protein)
chain: MEGCVSNLMVCNLAYSGKLEELKESILADKSLATRTDQDSRTALHWACSAGHTEIVEFLLQLGVPVNDKDDAGWSPLHIAASAGRDEIVKALLGKGAQVNAVNQNGCTPLHYAASKNRHEIAVMLLEGGANPDAKDHYEATAMHRAAAKGNLKMIHILLYYKASTNIQDTEGNTPLHLACDAERVEEAKLLVSQGASIYIENKEEKTPLQVAKGGLGLILKR
B6: gankyrin-His6x R41A/K116A (natural protein)
chain: MEGCVSNLMVCNLAYSGKLEELKESILADKSLATRTDQDSATALHWACSAGHTEIVEFLLQLGVPVNDKDDAGWSPLHIAASAGRDEIVKALLGKGAQVNAVNQNGCTPLHYAASANRHEIAVMLLEGGANPDAKDHYEATAMHRAAAKGNLKMIHILLYYKASTNIQDTEGNTPLHLACDEERVEEAKLLVSQGASIYIENKEEKTPLQVAKGGLGLILKR
B7: Grafted FtsH-S6 ATPase, His6x-tagged (wild-type) (other)
chain: MLTEDQIKTTFADVAGCDEAKEEVAELVEYLREPSRFQKLGGKIPKGVLMVGPPGTGKTLLAKAIAGEAKVPFFTISGSDFVEMFVGVGASRVRDMFEQAKKAAPCIIFIDEIDAVGRQRGAGLGGGHDEREQTLNQMLVEMDGFEGNEGIIVIAATNRPDVLDPALLRPGRFDRQVVVGLPDRRQKRLIFSTITSKMNLSEEVDLEDYVARPDKISGADINSICQESGMLAVRENRYIVLAKDFEKAYKTVIKKDEQEHEFYK

Holding throughout (experiment): ITC
(Isothermal titration calorimetry measures the heat released or taken up as one component is titrated into another.)

The target of assay [1] is FtsH-S6 ATPase R338A/R339A/R342A (ITC protein) (Escherichia coli | , UniProt P43686 337-418, R338A | R339A | R342A).
The target of assay [2] is FtsH-S6 ATPase E356A/E357A (ITC protein) (Escherichia coli | , E356A | E357A).
For assay [3], the target named is FtsH-S6 ATPase K397E (ITC protein) (Escherichia coli | , UniProt P43686 337-418, K397E).
For assay [4], the target named is B7.
Assay [5] deals with FtsH-S6 ATPase R342A (ITC protein) (Escherichia coli | , UniProt P43686 337-418, R342A).
Assay [6] has as its target FtsH-S6 ATPase R338A/R342A (ITC protein) (Escherichia coli | , UniProt P43686 337-418, R338A | R342A).
The target in assay [7] is B1.
The target in the assay “gankyrin-His6x R41A” is B2.
The assay “gankyrin K116A” has as its target B3.
The target in the assay “gankyrin-His6x D39A/D71A” is B4.
Assay [8] concerns the target B6.
In the assay “gankyrin E182A” the target is B5.

By Kd is commonly meant the equilibrium constant for the complex coming apart. Regarding B1, the Kd in [1] amounted to 7.47 µM; in assay [2] it was 71.8 nM; in assay [3], 95.2 nM; in [5], 217 nM; in assay [6], 2550 nM. For the same molecule, the dH was -2.2 kcal/mol in assay [1]; -27.3 kcal/mol in [2]; -25.6 kcal/mol in [3]; -28.7 kcal/mol in [4]; -22 kcal/mol in assay [5]; -6.1 kcal/mol in assay [6].
Regarding B2, the dH in assay [4] was -17.1 kcal/mol.
The same measure, in the same setting: to B3 belongs -24 kcal/mol.
On the same count and under the same terms, for B4 the value was -25 kcal/mol; for B5, -28.2 kcal/mol.
Same read-out and setting: to B6 belongs -4.9 kcal/mol.
For B7, the dissociation constant (Kd) in [7] worked out at 67.3 nM; with gankyrin-His6x R41A, 313 nM; with gankyrin K116A it was 71.3 nM; with gankyrin-His6x D39A/D71A it was 93 nM; in [8], 3.63 µM; with gankyrin E182A, 141 nM.
